Target: T1, synthesized human Aβ42 peptide (human, UniProt P05067 672-713)
T1 construct: also called Aβ peptide
Assay: ELISA
Details: one partner purified

B1: human PrP^C (transgene of TgHuPrP mice) (natural protein)
chain: not shown
**Q.** Which “binding relative to mouse PrP^C, corrected for PrP expression” value does the source give for B1 here?
**A.** The value was 177 ± 9.5%.

Source: PMC6562043 (Scientific Reports, 2019)
